Assay results as given in patent US20110190477A1 (G2 INFLAMMATION, published 2011).
No end group written: not given here. *: point of attachment. Biotin = O=C1N[C@H]2[C@H](CS[C@H]2CCCCC(=O)*)N1

B1: humanized anti-C5aR antibody hAb-J (antibody, human IgG4 S228P, kappa)
light: DVVMTQSPLSLPVTLGEPASISCRSSQSLVHSNGNTYLHWYLQKPGQSPQLLIYKVSNRFSGVPDRFSGSGSGTDFTLKISRVEAEDVGVYFCSQSTLVPLTFGQGTKLEIKTVAAPSVFIFPPSDEQLKSGTASVVCLLNNFYPREAKVQWKVDNALQSGNSQESVTEQDSKDSTYSLSSTLTLSKADYEKHKVYACEVTHQGLSSPVTKSFNRGEC
heavy: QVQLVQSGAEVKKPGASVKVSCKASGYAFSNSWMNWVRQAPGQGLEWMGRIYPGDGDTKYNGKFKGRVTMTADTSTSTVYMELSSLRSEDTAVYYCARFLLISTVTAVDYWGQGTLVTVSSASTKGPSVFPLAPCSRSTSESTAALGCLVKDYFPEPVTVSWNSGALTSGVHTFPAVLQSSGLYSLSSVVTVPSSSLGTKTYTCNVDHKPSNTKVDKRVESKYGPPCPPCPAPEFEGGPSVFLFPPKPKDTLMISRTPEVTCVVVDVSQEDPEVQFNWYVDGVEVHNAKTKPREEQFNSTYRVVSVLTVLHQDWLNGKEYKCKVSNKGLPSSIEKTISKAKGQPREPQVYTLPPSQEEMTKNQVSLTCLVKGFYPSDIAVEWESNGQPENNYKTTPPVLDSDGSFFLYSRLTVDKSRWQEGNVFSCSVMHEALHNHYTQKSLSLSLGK
notes: also called antibody J
B2: mouse anti-C5aR monoclonal antibody 7F3 (antibody, V domains shown)
VH: QVQLQQSGPELVKPGASVKISCKASGYAFSNSWMNWVKQRPGKGLEWIGRIYPGDGDTKYNGKFKGKATLTADKSSSTAYMQLSSLTSEDSAVYFCARFLLISTVTAVDYWGQGTTLTVSS
VL: DVVMTQSPLSLPVSLGNQASISCRSSQSLVHSNGNTYLHWYLQKPGQSPKLLIYKVSNRFSGVPDRFSGSGSGTDFSLKISRVEAEDLGVYFCSQSTLVPLTFGAGTKLELK
notes: Mouse monoclonal from hybridoma ECACC 00110609; also called m7F3; mouse 7F3
B3: humanized anti-C5aR antibody hAb-Q (antibody, human IgG4 S228P, kappa)
light: DVVMTQSPLSLPVTLGEPASISCRSSQSLVHSNGNTYLHWYLQKPGQSPQLLIYKVSNRFSGVPDRFSGSGSGTDFTLKISRVEAEDVGVYFCSQSTLVPLTFGQGTKLEIKRTVAAPSVFIFPPSDEQLKSGTASVVCLLNNFYPREAKVQWKVDNALQSGNSQESVTEQDSKDSTYSLSSTLTLSKADYEKHKVYACEVTHQGLSSPVTKSFNRGEC
heavy: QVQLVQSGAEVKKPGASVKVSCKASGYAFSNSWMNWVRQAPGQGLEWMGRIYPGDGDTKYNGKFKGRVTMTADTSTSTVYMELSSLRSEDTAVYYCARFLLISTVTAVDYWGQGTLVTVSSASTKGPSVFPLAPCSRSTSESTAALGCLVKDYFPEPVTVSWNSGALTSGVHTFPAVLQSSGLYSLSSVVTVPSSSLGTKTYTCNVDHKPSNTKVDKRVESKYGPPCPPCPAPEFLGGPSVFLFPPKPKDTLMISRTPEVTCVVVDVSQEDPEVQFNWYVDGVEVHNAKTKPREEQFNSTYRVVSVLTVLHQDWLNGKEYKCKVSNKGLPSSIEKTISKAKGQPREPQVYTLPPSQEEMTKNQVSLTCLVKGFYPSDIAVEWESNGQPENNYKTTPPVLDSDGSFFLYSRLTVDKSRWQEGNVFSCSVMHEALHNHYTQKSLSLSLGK
notes: IgG4 with the Ser228Pro mutation; also called antibody Q; anti-C5aR ab

Assays:
human C5a receptor [1] = target: T1, human C5a receptor (human, UniProt P21730 1-350); assay: cell-based or functional assay
T1 chain: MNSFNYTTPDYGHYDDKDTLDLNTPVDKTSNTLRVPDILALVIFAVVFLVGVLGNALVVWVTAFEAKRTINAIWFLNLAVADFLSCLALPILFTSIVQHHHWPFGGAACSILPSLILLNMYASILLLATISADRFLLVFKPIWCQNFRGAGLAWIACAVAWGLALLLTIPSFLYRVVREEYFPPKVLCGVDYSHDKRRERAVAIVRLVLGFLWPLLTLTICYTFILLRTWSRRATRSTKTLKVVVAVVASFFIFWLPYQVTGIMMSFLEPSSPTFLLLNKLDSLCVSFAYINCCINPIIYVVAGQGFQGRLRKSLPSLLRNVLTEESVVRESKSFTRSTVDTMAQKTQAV

human C5a receptor [2] = target: T1, human C5a receptor; assay: 125I-C5a displacement, L1.2/hC5aR transfectants
Protocol: (§1) The ability of humanized Abs to inhibit ¹²⁵I-labelled C5a binding to L1.2 cells transfected with hC5aR gene or human neutrophils was tested as described below. Recombinant human C5a was obtained from Sigma Chemical Co. (St. Louis, Mo.). ¹²⁵I-Bolton-Hunter-labelled complement C5a was purchased from NEN-Dupont (Boston, Mass.), with a specific activity of 2200 Ci/mM. Briefly, L1.2/hC5aR stable transfectants were grown for several days prior to an experiment then treated overnight with 5 mM butyric acid to stimulate hC5aR expression prior to the binding assay. Human neutrophils were purified from venous blood collected from healthy volunteers. Neutrophils were separated from other leukocytes by percoll density centrifugation followed by a red blood cell lysis step. Both cell types were washed once in PBS and resuspended in binding buffer (50 mM Hepes, pH 7.5, 1 mM CaCl₂, 5 mM MgCl₂, 0.5% BSA) at a concentration of 1×10⁷/ml. Aliquots of 40 μl (4×10⁵ cells) were dispensed into 96 well microtitre plates, followed by the addition of cold competitor (antibody or human C5a). Cells and cold competitor were incubated for 15 min at room temperature before-radiolabelled C5a was added to a final concentration of 0.4 nM. The final reaction volume was 120 μl. After 60 min incubation at room temperature, the cells were washed three times with 150 μl of binding buffer containing 0.15 M NaCl. Cell pellets were then counted on a TopCount Scintillation Counter (Packard). Samples were assayed in triplicate at each of 6-8 concentrations. Each antibody was tested in at least 3 separate assays. The number of counts in each sample was expressed as a percentage of the maximum ¹²⁵I-C5a binding observed in wells with no added cold competitor after subtraction of background.
(§2) Results of this analysis (the displacement curves) for each of the humanized antibodies compared to the mouse antibody 7F3 in human neutrophils and L1.2/hC5aR transfectants are given in FIGS. 11 and 12 respectively. […] These values were obtained using Graphpad Prism software fitting the data to the non-linear equation for one site competition.

human C5a receptor [3] = target: T1, human C5a receptor; assay: 125I-C5a displacement, human neutrophils
Protocol: as §1, §2

[4] = target: T2, peptide 10 (12 mer from the 2nd extracellular loop of human C5aR) (human); assay: peptide ELISA, biotin peptide on streptavidin plate
T2 construct: worked out from 22 12 mers offset by one over 173-205; also called peptide no; 10
T2 peptide: Biotin-SGSGFPPKVLCGVDYS
Excerpt: (§3) A set of 22 overlapping peptides (12 mers), each offset by 1 residue from the next, spanning the second extracellular loop (3rd extracellular domain) of human C5aR was synthesised (Mimotopes, Melbourne). Each peptide was made with a biotin group and 4-amino acid linker (SGSG) at its N-terminus. One peptide synthesised, no. 23, was a 33 mer, representing the full length of the 2nd extracellular loop of hC5aR (residues 173-205 from SEQ ID NO:37), also had biotin-SGSG at the N-terminus.
(§4) The experiment was conducted by binding the peptides to a 384-well streptavidin-coated plate then incubating the antibodies with the peptides and detecting bound antibody with an anti-mouse IgG conjugated to horse radish peroxidase (HRP) as follows. Each peptide was dissolved in 200 μl of 60% DMSO to a concentration of 10 mg/ml. Peptides were further diluted 1:1000 to a working strength of 10 μg/ml with PBS/Tween 20/azide solution (0.1% w/v sodium azide in PBS/0.05% Tween 20).
(§5) A 384 well streptavidin-coated plate (Nunc) was blocked with 20 μl of blocking buffer (1% w/v BSA in PBS) per well. The plate was washed 4 times with PBS/Tween20 buffer (0.1% v/v Tween 20 in PBS). 20 μl of diluted peptide solution was transferred into a well and the plate incubated for 1 hour at room temperature. After washing the plate 4 times (as above) 20 μl antibody (0.5, 1, 1.25, 2.5 or 5 μg/ml) was added to the well and the plate was incubated for 1 hour at 20° C. The plate was washed 4 times as above then 20 μlHRP-conjugated anti-mouse IgG (1:5000 dilution in PBS/Tween 20) was added to each well. After a 1 hour incubation at room temperature the plate was washed 3 times (as above) then twice with PBS to remove traces of Tween. The presence of peroxidase was detected by adding 20 μl of freshly prepared TMB Substrate reagent (BD Opt EIA) to each well and incubating at room temperature for 20 min. Finally the plate was read at 650 nm/450 nm.

[5] = target: T3, peptide 19 (12 mer from the 2nd extracellular loop of human C5aR) (human); assay: as above
T3 construct: worked out from 22 12 mers offset by one over 173-205; also called peptide no; 19
T3 peptide: Biotin-SGSGDYSHDKRRERAV
Excerpt: as §3, §4, §5

[6] = target: T4, peptide 20 (12 mer from the 2nd extracellular loop of human C5aR) (human); assay: as above
T4 construct: worked out from 22 12 mers offset by one over 173-205; also called peptide no; 20
T4 peptide: Biotin-SGSGYSHDKRRERAVA
Excerpt: as §3, §4, §5

[7] = target: T5, peptide 15 (12 mer from the 2nd extracellular loop of human C5aR) (human); assay: as above
T5 construct: worked out from 22 12 mers offset by one over 173-205; also called peptide no; 15
T5 peptide: Biotin-SGSGLCGVDYSHDKRR
Excerpt: as §3, §4, §5

[8] = target: T6, peptide 8 (12 mer from the 2nd extracellular loop of human C5aR) (human); assay: as above
T6 construct: worked out from 22 12 mers offset by one over 173-205; also called peptide no
T6 peptide: Biotin-SGSGEYFPPKVLCGVD
Excerpt: as §3, §4, §5

[9] = target: T7, peptide 21 (12 mer from the 2nd extracellular loop of human C5aR) (human); assay: as above
T7 construct: worked out from 22 12 mers offset by one over 173-205; also called peptide no; 21
T7 peptide: Biotin-SGSGSHDKRRERAVAI
Excerpt: as §3, §4, §5

Binder	IC50, C5a-induced migration of hC5aR/L1.2 cells (human C5a receptor [1])	antibody concentration that completely inhibited hC5aR/L1.2 transfectant migration (human C5a receptor [1])	blocking of human neutrophil migration towards C5a at 5 µg/ml antibody (human C5a receptor [1])	EC50 (human C5a receptor [2])	EC50 (human C5a receptor [3])	binding result [4]	binding result [5]	binding result [6]	binding result [7]	binding result [8]	binding result [9]	antibody concentration that completely blocked migration of human neutrophils induced by 10 nM C5a (human C5a receptor [1])	EC50 for inhibition of C5a-induced human neutrophil migration (human C5a receptor [1])	IC50, prevention of C5a-induced CD11b up-regulation on neutrophils in whole human blood (100 nM C5a) (human C5a receptor [1])	IC50, prevention of C5a-induced loss of CD62L on neutrophils in whole human blood (100 nM C5a) (human C5a receptor [1])
B1	0.6 µg/mL	5 µg/mL	82%	0.93 nM	4.11 nM	no binding	no binding	no binding	no binding	no binding	no binding				
B2	0.5 µg/mL	5 µg/mL	97%	0.51 nM	0.54 nM	no binding	no binding	no binding	no binding	no binding	no binding	10 µg/mL			
B3	0.7 µg/mL	5 µg/mL		0.86 nM	3.5 nM	no binding	no binding	no binding	no binding	no binding	no binding		0.03 µg/mL	~10.7 µg/mL	~5.4 µg/mL
